Test results: patent US20230331835A1 (published 2023)
Values belong to the binder of their own block, whether it stands above or below them.

Key:
[1] = biological target: BMECs; experiment: cell binding, apparent equilibrium affinity; apparent Kd; 95% CI 19-36
[2] = biological target: BMECs; experiment: cell binding, apparent equilibrium affinity; apparent Kd; 95% CI 30-74
[3] = biological target: BMECs; experiment: cell binding, apparent equilibrium affinity; apparent Kd; 95% CI 29-47
[4] = biological target: BMECs; experiment: cell binding, apparent equilibrium affinity; apparent Kd; 95% CI 27-60
[5] = biological target: BMECs; experiment: cell binding, apparent equilibrium affinity; apparent Kd; 95% CI 128-179

- Kd [1]: 28 nM
B1: 17 (Fc fusion)
chain: QVQLLQSAGALVQPGGSLRLSCAASGFTFSSSTMHWVRQAPGKGLEWVAVVSYDGNTQYYADSVKGRFTISRDNSKNTLSLQMNNLRAEDTAVYYCAGLWGSLLGYFQHWGQGTLVTVSSGGGGSGGGGSGGGGSDIQMTQSPSFLSASVGDRVTITCRASQGVNNYLAWYQQKPGKAPKLLIYAASTLQSGVPSSFSGSGSGTEFTLTISSLQPEDFATYFCQQAHSFPPTFGGGTKLEIKR

- Kd [2]: 52 nM
B2: 3 (Fc fusion)
chain: QVQLQESGGGVVQPGRSLRLSCAASGFTFSSYAMHWVRQAPGKGLEWVAVISYDGSNKYYADSVKGRFTISRDNSKNTLYLQMNSLRAEDTAVYYCARDSKGQSVRNRFDPWGQGTLVTVSSGGGGSGGGGSGGGGSSELTQDPAVSVALGQTVRITCQGDNLRSYYASWYQQRPGQAPILVLYANTHRPSSIPDRFSGSSSGNTASLTITGAQAEDEADYYCNSRDSSGNLVVFGGGTKLTVLG

- Kd [3]: 38 nM
B3: 26 (Fc fusion)
chain: QVELVESGGGLVQPGGSLRLSCAASGFTFSTYWMNWVRQAPGKGLEWVAIINQDGTAEYYVDSVEGRFTISRDNAKNSLYLQMTSLRVEDTAVYYCATPTGDSDYWGQGTLVTVSSGGGGSGGGGSGGGGSSELTQDPAVSVALGQTVRITCQGDSLRSYYATWYQQKPGQAPVAVIYGQNNRPSGIPDRFSGSNSGNTASLTITAALAEDEADYYCHSRDSSGNHVLFGGGTKLTVLG

- Kd [4]: 44 nM
B4: 9 (Fc fusion)
chain: QVQLVESGGGVTQPGLSLRLSCAASGFTFSSYAMSWVRQAPGKGLEWVSAISGSGGSTYYADSVKGRFTISRDNSKNTLYLQMNSLRAEDTAVYYCARGWKYFDYWGQGTLVTVSSSGGGSGGGGSGGGGSETTLTQSPSTLSASIGDRVAITCRASEGIYHWLAWYQQKPGKAPKLLIYKASSLASGAPSRFSGSGSGTDFTLTISSLQPDDFATYYCQQYHTISRTFGPGTKVEIKR

- Kd [5]: 153 nM
B5: 46.1 (Fc fusion)
chain: QVQLQESGGGLAQPGGSLRLSCAASGFTFSGYWMHWVRQAPGKGLVWVSRIKGDGTDIEYADSVKGRFTISRDNAKNTLYLQMNSLRAEDTAVYYCARDLRQTHWFDSWGQGTLVTVSSGGGGSGGGGSGGGGSQSALTQDPAVSVALGQTVRITCQGDSLRSYYASWYQQKPGQAPVLVMYGENSRPSGIPDRFSGSNSGNTASLIITGAQAEDEADYYCSSRDTSGNHVLFGGGTKLTVLG
